The text below walks through data of patent US20200262898A1 (INTEGRAL MOLECULAR, published 2020).

One test addresses T1, IGSF8 (UniProt Q969P0 28-613, limits assumed).
T1 construct: whole, on cells
T1 sequence (looked up): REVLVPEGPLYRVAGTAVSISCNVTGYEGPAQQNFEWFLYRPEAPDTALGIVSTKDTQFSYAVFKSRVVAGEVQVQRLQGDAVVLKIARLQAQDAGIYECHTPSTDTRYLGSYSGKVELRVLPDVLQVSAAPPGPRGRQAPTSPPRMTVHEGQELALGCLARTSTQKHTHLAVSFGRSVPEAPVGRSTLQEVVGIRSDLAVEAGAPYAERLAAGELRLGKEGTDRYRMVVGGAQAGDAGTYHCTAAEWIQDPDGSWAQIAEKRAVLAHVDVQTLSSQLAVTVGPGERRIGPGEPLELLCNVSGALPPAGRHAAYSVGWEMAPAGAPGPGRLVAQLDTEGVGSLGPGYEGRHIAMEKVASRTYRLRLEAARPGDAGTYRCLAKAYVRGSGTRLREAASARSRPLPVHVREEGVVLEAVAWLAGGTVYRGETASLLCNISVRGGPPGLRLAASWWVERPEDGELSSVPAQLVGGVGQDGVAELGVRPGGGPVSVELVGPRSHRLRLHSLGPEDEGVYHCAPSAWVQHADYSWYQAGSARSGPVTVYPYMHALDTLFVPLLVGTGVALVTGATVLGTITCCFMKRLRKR
Nature of the test: flow cytometry on cells transfected with the target; signal over mock-transfected cells (background = 1.0). The text has this:
(§1) Antibodies were generated using the common light chains B9, F10, C11, and H11 paired with 8 different heavy chains. […] Binding is expressed as Signal:Background for binding to the molecular target of the heavy chain antibody (listed at top of Table 4). Expression is based on binding to cells expressing an Fc-binding protein (the ZZ domain of ProA) (ZZ) on their surface, enabling total antibody to bind and be measured. Detection was using flow cytometry with cells transfected to express the target protein. Background binding S:B is normalized to 1.0, using mock-transfected cells as background. The data in the table below illustrate that the light chains can be used with a variety of heavy chains and the antibody generated from a VH that can bind to the light chains B9 and F10 will function and bind to the target of interest.
A general note: A flow cytometer gives signals particle by particle.

Test [1] deals with T2, Fc-binding protein (the ZZ domain of ProA).
T2 construct: domain: ZZ domain of ProA; the construct is not described
Description: flow cytometry on cells expressing the Fc-binding ZZ domain on their surface; given as a measure of expression.
From the text: as §1

The next test has as its target T3, CD63 (UniProt P08962 2-238, limits assumed).
T3 construct: whole, on cells
Nature of the test: flow cytometry on cells transfected with the target; signal over mock-transfected cells (background = 1.0).
From the text: as §1

The target of another test is T4, CD151 (UniProt P48509 1-253, limits assumed).
T4 construct: whole, on cells
T4 sequence (looked up): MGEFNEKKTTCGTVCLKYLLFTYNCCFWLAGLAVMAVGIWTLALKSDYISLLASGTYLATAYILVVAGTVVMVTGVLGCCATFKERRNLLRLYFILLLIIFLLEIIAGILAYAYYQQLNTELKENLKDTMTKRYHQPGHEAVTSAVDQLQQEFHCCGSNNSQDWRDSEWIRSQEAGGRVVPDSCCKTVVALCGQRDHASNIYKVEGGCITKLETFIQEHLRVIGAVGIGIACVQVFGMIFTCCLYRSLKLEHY
The test is described as above.
From the text: as §1

B1: Antibody of common light chain C11 (C11chicken) paired with the heavy chain against IGSF8 (antibody, V domains shown)
VH: AVTLDESGGGLQTPGGGLSLVCKASGFSISSYEMQWVRQAPGKGLEWVAGIDDDGSSRAYAPAVKGRATISRDNGQSTVRLQLNNLRAEDTGTYYCAKTIYAATLNAGEIDAWGHGTEVIVSS
VL: ALTQPSSVSANPGETVKITCSGGGSWYGSYYYGWYQQKSPGSAPVTLIYNNDKRPSDIPSRFSGSESGSTATLTITGVQAEDEAVYFCGGYDSTTTDMFGAGTTLTVL
notes: also called HC-IGSF8
As to B1, the “S:B Binding” value with IGSF8 is 5.5 S:B. Also, the “S:B Expression” value in test [1] is 12 S:B.

B2: Antibody of common light chain C11 (C11chicken) paired with the heavy chain against CD147 (antibody, V domains shown)
VH: AVTLDESGGGLQTPGGGLSLVCKASGFTFSSYAMYWVRQAPGKGLQWVAGISRDGSSGRYGAAVKGRATISRDNGQSTVRLQLNNLRAEDTATYFCAKSGYGDYTSADEIDAWGHGTEVIVSS
VL: ALTQPSSVSANPGETVKITCSGGGSWYGSYYYGWYQQKSPGSAPVTLIYNNDKRPSDIPSRFSGSESGSTATLTITGVQAEDEAVYFCGGYDSTTTDMFGAGTTLTVL
notes: also called HC-CD147
On to B2, for which the “S:B Expression” value in test [1] was 16.6 S:B.

B3: Antibody of light chain E1 (E1chicken) paired with the heavy chain against IGSF8 (antibody, V domains shown)
VH: AVTLDESGGGLQTPGGGLSLVCKASGFSISSYEMQWVRQAPGKGLEWVAGIDDDGSSRAYAPAVKGRATISRDNGQSTVRLQLNNLRAEDTGTYYCAKTIYAATLNAGEIDAWGHGTEVIVSS
VL: ALTQPSSVSANPGETVKITCSGSSGSGYYGWYQQKSPGSAPVTLIYDNDKRPSDIPSRFSGSKSGSTGTLTITGVQADDEAVYFCGSADNNYTGIFGAGTTLTVL
notes: also called HC-IGSF8
Turning to B3, in the test with IGSF8, the “S:B Binding” value is 18.1 S:B. Besides, the “S:B Expression” value in test [1] was 2 S:B.

B4: Antibody of common light chain C11 (C11chicken) paired with the heavy chain against CD63 (antibody, V domains shown)
VH: AVTLDESGGGLQTPGGALSLVCKASGFTFSDRGMHWVRQAPGKGLEWVAGIRSTGSFTLYGAAVKGRATISRDDGQSTLRLQLNNLRAEDTGTYYCAKSAGGYGCGRGWCGVDDIDAWGHGTEVIVSS
VL: ALTQPSSVSANPGETVKITCSGGGSWYGSYYYGWYQQKSPGSAPVTLIYNNDKRPSDIPSRFSGSESGSTATLTITGVQAEDEAVYFCGGYDSTTTDMFGAGTTLTVL
notes: also called HC-CD63
For the molecule B4, in the test with CD63, the “S:B Binding” value is 0.8 S:B. In addition, the “S:B Expression” value in test [1] was 8.8 S:B.

B5: Antibody of light chain D3 (D3chicken) paired with the heavy chain against IGSF8 (antibody, V domains shown)
VH: AVTLDESGGGLQTPGGGLSLVCKASGFSISSYEMQWVRQAPGKGLEWVAGIDDDGSSRAYAPAVKGRATISRDNGQSTVRLQLNNLRAEDTGTYYCAKTIYAATLNAGEIDAWGHGTEVIVSS
VL: ALTQPSSVSANPGETVKITCSGDDRWYGWYQQKSPGSAPVTLIYSNDKRPSDIPSRFSGSKSGSTGTLTITGVQADDEAVYFCGSRDSSYAGIFGAGTTLTVL
notes: also called HC-IGSF8
For the molecule B5, the “S:B Binding” value in the test with IGSF8 was 19.4 S:B. The “S:B Expression” value in test [1] was 3.2 S:B.

B6: Antibody of light chain D3 (D3chicken) paired with the heavy chain against CD63 (antibody, V domains shown)
VH: AVTLDESGGGLQTPGGALSLVCKASGFTFSDRGMHWVRQAPGKGLEWVAGIRSTGSFTLYGAAVKGRATISRDDGQSTLRLQLNNLRAEDTGTYYCAKSAGGYGCGRGWCGVDDIDAWGHGTEVIVSS
VL: ALTQPSSVSANPGETVKITCSGDDRWYGWYQQKSPGSAPVTLIYSNDKRPSDIPSRFSGSKSGSTGTLTITGVQADDEAVYFCGSRDSSYAGIFGAGTTLTVL
notes: also called HC-CD63
As for B6, the “S:B Binding” value with CD63 was 20.6 S:B. The “S:B Expression” value in test [1] was 3.9 S:B.

B7: Antibody of light chain E1 (E1chicken) paired with the heavy chain against CD63 (antibody, V domains shown)
VH: AVTLDESGGGLQTPGGALSLVCKASGFTFSDRGMHWVRQAPGKGLEWVAGIRSTGSFTLYGAAVKGRATISRDDGQSTLRLQLNNLRAEDTGTYYCAKSAGGYGCGRGWCGVDDIDAWGHGTEVIVSS
VL: ALTQPSSVSANPGETVKITCSGSSGSGYYGWYQQKSPGSAPVTLIYDNDKRPSDIPSRFSGSKSGSTGTLTITGVQADDEAVYFCGSADNNYTGIFGAGTTLTVL
notes: also called HC-CD63
B7: in the test with CD63, the “S:B Binding” value is 31.8 S:B. For the same molecule, the “S:B Expression” value in test [1] is 24.4 S:B.

B8: Antibody of common light chain B9 (B9chicken) paired with the heavy chain against CD151 (antibody, V domains shown)
VH: AVTLDESGGGLQMPGGALSLVCKASGFTFSSYGMEWVRQAPGKGLEWVAGISSGGGSTDYGTAVKGRATISRDNGQSTVRLQLNNLRAEDTGTYFCAKSAYGGTWDGDDIDAWGHGTEVIVSS
VL: ALTQPSSVSANPGETVKITCSGGGSSNYYGWYQQKSPGSAPVTLIYGTNKRPSDIPSRFSGSKSGSTGTLTITGVQADDEAVYFCGSADSSTNAGIFGAGTTLTVL
notes: also called HC-CD151
Regarding B8, the “S:B Binding” value with CD151 is 27.4 S:B. Besides, the “S:B Expression” value in test [1] is 9.7 S:B.

B9: Antibody of light chain E1 (E1chicken) paired with the heavy chain against CD151 (antibody, V domains shown)
VH: AVTLDESGGGLQMPGGALSLVCKASGFTFSSYGMEWVRQAPGKGLEWVAGISSGGGSTDYGTAVKGRATISRDNGQSTVRLQLNNLRAEDTGTYFCAKSAYGGTWDGDDIDAWGHGTEVIVSS
VL: ALTQPSSVSANPGETVKITCSGSSGSGYYGWYQQKSPGSAPVTLIYDNDKRPSDIPSRFSGSKSGSTGTLTITGVQADDEAVYFCGSADNNYTGIFGAGTTLTVL
notes: also called HC-CD151
In the case of B9, the “S:B Binding” value with CD151 was 28.8 S:B. In test [1], the “S:B Expression” value is 11.3 S:B.

B10: Antibody of common light chain B9 (B9chicken) paired with the heavy chain against IGSF8 (antibody, V domains shown)
VH: AVTLDESGGGLQTPGGGLSLVCKASGFSISSYEMQWVRQAPGKGLEWVAGIDDDGSSRAYAPAVKGRATISRDNGQSTVRLQLNNLRAEDTGTYYCAKTIYAATLNAGEIDAWGHGTEVIVSS
VL: ALTQPSSVSANPGETVKITCSGGGSSNYYGWYQQKSPGSAPVTLIYGTNKRPSDIPSRFSGSKSGSTGTLTITGVQADDEAVYFCGSADSSTNAGIFGAGTTLTVL
notes: also called HC-IGSF8
For B10, the “S:B Binding” value with IGSF8 is 1.7 S:B. For the same molecule, the “S:B Expression” value in test [1] is 12.7 S:B.

B11: Antibody of common light chain B9 (B9chicken) paired with the heavy chain against CD147 (antibody, V domains shown)
VH: AVTLDESGGGLQTPGGGLSLVCKASGFTFSSYAMYWVRQAPGKGLQWVAGISRDGSSGRYGAAVKGRATISRDNGQSTVRLQLNNLRAEDTATYFCAKSGYGDYTSADEIDAWGHGTEVIVSS
VL: ALTQPSSVSANPGETVKITCSGGGSSNYYGWYQQKSPGSAPVTLIYGTNKRPSDIPSRFSGSKSGSTGTLTITGVQADDEAVYFCGSADSSTNAGIFGAGTTLTVL
notes: also called HC-CD147
Regarding B11, in test [1], the “S:B Expression” value is 17 S:B.

B12: Antibody of common light chain B9 (B9chicken) paired with the heavy chain against CD63 (antibody, V domains shown)
VH: AVTLDESGGGLQTPGGALSLVCKASGFTFSDRGMHWVRQAPGKGLEWVAGIRSTGSFTLYGAAVKGRATISRDDGQSTLRLQLNNLRAEDTGTYYCAKSAGGYGCGRGWCGVDDIDAWGHGTEVIVSS
VL: ALTQPSSVSANPGETVKITCSGGGSSNYYGWYQQKSPGSAPVTLIYGTNKRPSDIPSRFSGSKSGSTGTLTITGVQADDEAVYFCGSADSSTNAGIFGAGTTLTVL
notes: also called HC-CD63
B12: the “S:B Binding” value with CD63 is 2.7 S:B. The “S:B Expression” value in test [1] is 11.3 S:B.

B13: Antibody of common light chain C11 (C11chicken) paired with the heavy chain against CD151 (antibody, V domains shown)
VH: AVTLDESGGGLQMPGGALSLVCKASGFTFSSYGMEWVRQAPGKGLEWVAGISSGGGSTDYGTAVKGRATISRDNGQSTVRLQLNNLRAEDTGTYFCAKSAYGGTWDGDDIDAWGHGTEVIVSS
VL: ALTQPSSVSANPGETVKITCSGGGSWYGSYYYGWYQQKSPGSAPVTLIYNNDKRPSDIPSRFSGSESGSTATLTITGVQAEDEAVYFCGGYDSTTTDMFGAGTTLTVL
notes: also called HC-CD151
On to B13, for which the “S:B Binding” value with CD151 was 1.4 S:B. The “S:B Expression” value in test [1] is 11.5 S:B.

B14: Antibody of light chain D3 (D3chicken) paired with the heavy chain against CD151 (antibody, V domains shown)
VH: AVTLDESGGGLQMPGGALSLVCKASGFTFSSYGMEWVRQAPGKGLEWVAGISSGGGSTDYGTAVKGRATISRDNGQSTVRLQLNNLRAEDTGTYFCAKSAYGGTWDGDDIDAWGHGTEVIVSS
VL: ALTQPSSVSANPGETVKITCSGDDRWYGWYQQKSPGSAPVTLIYSNDKRPSDIPSRFSGSKSGSTGTLTITGVQADDEAVYFCGSRDSSYAGIFGAGTTLTVL
notes: also called HC-CD151
As to B14, the “S:B Binding” value with CD151 was 47.5 S:B. For the same molecule, the “S:B Expression” value in test [1] was 6.5 S:B.
